From patent publication EP4703388A1 (Jiangsu Hengrui Pharmaceuticals Co., Ltd., dated 2024)
Each block holds one binder with its values, some of them ahead of it.

Assays:
[1] = target: T1, HuRatTF, human-rat hybrid TF antigen (human-rat hybrid); assay: ELISA, HuRatTF coated, antibody titrated
T1 construct: also called HuRatTF protein; human-rat hybrid TF protein
T1 chain: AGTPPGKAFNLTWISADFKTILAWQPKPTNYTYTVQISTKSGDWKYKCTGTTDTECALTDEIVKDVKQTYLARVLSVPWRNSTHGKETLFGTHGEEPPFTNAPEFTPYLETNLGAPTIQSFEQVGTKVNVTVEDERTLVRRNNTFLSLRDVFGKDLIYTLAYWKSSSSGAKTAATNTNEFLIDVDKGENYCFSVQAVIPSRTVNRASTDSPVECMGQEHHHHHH

[2] = target: T2, human TF ECD-His (hTF-his) (human, UniProt P13726 33-251); assay: ELISA, antibody captured by anti-human IgG, biotinylated TF-his titrated
T2 construct: also called bio-hTF-his; human TF-His protein

[3] = target: T3, cyno TF ECD-His (cTF-his) (monkey (cyno)); assay: as above
T3 construct: also called bio-cTF-his; monkey TF-His protein
T3 chain: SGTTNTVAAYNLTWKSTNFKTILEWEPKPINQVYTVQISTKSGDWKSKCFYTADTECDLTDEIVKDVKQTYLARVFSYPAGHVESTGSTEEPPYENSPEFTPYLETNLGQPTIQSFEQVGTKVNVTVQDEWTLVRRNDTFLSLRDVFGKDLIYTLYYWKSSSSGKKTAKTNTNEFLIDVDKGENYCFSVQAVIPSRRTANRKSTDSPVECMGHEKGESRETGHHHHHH

[4] = target: T4, human tissue factor (TF) on MDA-MB-231, NCI-H358 and HCT116 cells (human, UniProt P13726 33-295); assay: cell-based or functional assay
rat TF ECD-His = target: T5, rat TF ECD-His (rat, UniProt P42533 29-252); assay: ELISA, TF-His coated at 4 µg/mL, antibody titrated
T5 construct: also called rat TF-His protein; rat TF antigen protein
T5 sequence: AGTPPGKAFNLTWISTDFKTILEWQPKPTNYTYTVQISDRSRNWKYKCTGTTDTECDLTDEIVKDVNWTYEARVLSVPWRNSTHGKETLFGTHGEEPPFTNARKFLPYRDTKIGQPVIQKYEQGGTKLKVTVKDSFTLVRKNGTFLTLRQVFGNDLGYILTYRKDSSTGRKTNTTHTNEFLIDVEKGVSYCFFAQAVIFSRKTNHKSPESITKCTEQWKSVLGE

mouse TF ECD-His = target: T6, mouse TF ECD-His (mouse, UniProt P20352 29-251); assay: ELISA, TF-His coated at 4 µg/mL, antibody titrated
T6 construct: also called Mouse TF-His protein; mouse TF antigen protein
T6 sequence: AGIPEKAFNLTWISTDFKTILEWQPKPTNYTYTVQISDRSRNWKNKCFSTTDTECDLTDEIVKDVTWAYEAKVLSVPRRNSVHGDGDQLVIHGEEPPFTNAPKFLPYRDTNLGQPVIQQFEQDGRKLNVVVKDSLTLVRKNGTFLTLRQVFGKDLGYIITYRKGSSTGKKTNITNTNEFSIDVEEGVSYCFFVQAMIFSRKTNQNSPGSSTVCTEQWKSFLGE

[5] = target: T4, human tissue factor (TF) on MDA-MB-231, …; assay: flow cytometry on HCT116 cells
[6] = target: T2, human TF ECD-His (hTF-his); assay: SPR Biacore T200, antibody on Protein A chip, TF-His as analyte, 1:1 model
[7] = target: T3, cyno TF ECD-His (cTF-his); assay: as above
[8] = target: T4, human tissue factor (TF) on MDA-MB-231, …; assay: flow cytometry on MDA-MB-231 cells
[9] = target: T4, human tissue factor (TF) on MDA-MB-231, …; assay: flow cytometry on H358 cells
[10] = target: T4, human tissue factor (TF) on MDA-MB-231, …; assay: cell-based or functional assay; remark: listed apart in the source

EC50 [1]: 2.13 nM
Maximum (OD450 nm) [1]: 0.428 OD450 nm
EC50 [2]: 0.0529 µg/mL
Emax [2]: 0.92
EC50 [3]: 0.041 µg/mL
Emax [3]: 0.92
EC50 (nM), IL8 assay (IL-8 of MDA-MB-231 cells after antibody and FVIIa) [4]: 0.407 nM
binding result (rat TF ECD-His): no binding
binding result (mouse TF ECD-His): no binding
EC50 [5]: 0.34 nM
Kd [6]: 18.5 nM
koff [6]: 0.00699 s⁻¹
kon [6]: 378000 M⁻¹ s⁻¹
Kd [7]: 19.2 nM
koff [7]: 0.00637 s⁻¹
kon [7]: 332000 M⁻¹ s⁻¹
EC50 [8]: 1.32 nM
EC50 [9]: 0.67 nM
Inhibition rate (%), Factor-VII-Human Chromogenic-Activity blood coagulation pathway assay (FVIIa, MDA-MB-231 cells, FX; antibody 20 µg/mL) [10]: -2.8%
B1: hu310-2 (antibody, human IgG1, kappa, V domains shown)
VH: EVQLVQSGAEVKKPGASVKVSCKASGYSFTGYYMNWVRQAPGQGLEWMGEINPSTGGSTYNQKFKARVTMTVDQSTSTVYMELSSLRSEDTAVYYCARRELGGPFGYWGQGTTVTVSS
VL: SIVMTQSPDSLAVSLGERATINCKASQSVSNGIAWYQQKPGQSPKLLIYFASNRYTGVPDRFSGSGYGTDFTLTISSLQAEDVAVYYCQQDYSSPWTFGGGTKVEIKR

EC50 [1]: 53.4 nM
Maximum (OD450 nm) [1]: 0.292 OD450 nm
EC50 [2]: 0.103 µg/mL
Emax [2]: 0.89
EC50 [3]: 0.0691 µg/mL
Emax [3]: 1.17
EC50 (nM), IL8 assay (IL-8 of MDA-MB-231 cells after antibody and FVIIa) [4]: 1.57 nM
binding result (rat TF ECD-His): no binding
binding result (mouse TF ECD-His): no binding
EC50 [5]: 1.66 nM
Kd [6]: 39.4 nM
koff [6]: 0.00263 s⁻¹
kon [6]: 66700 M⁻¹ s⁻¹
Kd [7]: 27.1 nM
koff [7]: 0.000947 s⁻¹
kon [7]: 35000 M⁻¹ s⁻¹
EC50 [8]: 4.91 nM
EC50 [9]: 5.42 nM
Inhibition rate (%), Factor-VII-Human Chromogenic-Activity blood coagulation pathway assay (FVIIa, MDA-MB-231 cells, FX; antibody 20 µg/mL) [10]: 4%
B2: hu67Y116 (antibody, human IgG1, kappa, V domains shown)
VH: EVQLQESGPGLVKPSQTLSLTCTVSGFSLTNYGVNWIRQSPGKGLEWIGVIWSRGNTDYNAAFKSRVTISKDTSKNQVSLKLSSVTAADTAVYYCARKDAIVATDALDYWGQGTTVTVSS
VL: DIQMTQSPSSLSASVGDRVTITCKASQDVQTAVAWYQQKPGKAPKLLIYSTHYRYTGVPSRFSGSGSGTDFTFTISSLQPEDIATYYCLQSYTLPFSFGGGTKVEIKR

EC50 [1]: 2 nM
Maximum (OD450 nm) [1]: 1.39 OD450 nm
EC50 [2]: 0.0035 µg/mL
Emax [2]: 1
EC50 [3]: 0.0027 µg/mL
Emax [3]: 1.13
EC50 (nM), IL8 assay (IL-8 of MDA-MB-231 cells after antibody and FVIIa) [4]: 0.412 nM
binding result (rat TF ECD-His): no binding
binding result (mouse TF ECD-His): no binding
EC50 [5]: 0.47 nM
Kd [6]: 0.749 nM
koff [6]: 0.00011 s⁻¹
kon [6]: 146000 M⁻¹ s⁻¹
Kd [7]: 0.677 nM
koff [7]: 0.000114 s⁻¹
kon [7]: 169000 M⁻¹ s⁻¹
EC50 [8]: 1.64 nM
EC50 [9]: 0.68 nM
Inhibition rate (%), Factor-VII-Human Chromogenic-Activity blood coagulation pathway assay (FVIIa, MDA-MB-231 cells, FX; antibody 20 µg/mL) [10]: -1.8%
B3: hu10H10-77 (antibody, V domains shown)
VH: EVQLVQSGSELKKPGASVKVSCKASGYTFITYWIEWVKQRPGQGLEWMGDILPYSGSTNYNENFKGRATFSADTSVSTAYLQISSLKAEDTAVYYCARSGYYGNSGFAYWGQGTLVTVSS
VL: DIQMTQSPSSLSASVGDRVTITCQSSQSLLSSGNQKNYLTWYQQKPGKAPKLLIYWASTRESGVPSRFSGSGSGTDFTLTISSLQPEDFATYYCQNDYTYPLTFGQGTKLEIK
notes: H11+L9; Full-length IgG
